Measured values published in US20250313607A1.

Assays:
Assay in all cases: cell-based or functional assay
[1] = target: IL-10R NatE MESA receptor pair in which both ECDs are IL-10Rβ (human; tobacco etch virus)
[2] = target: IL-10R NatE MESA receptor pair in which both ECDs are IL-10Rα (human; tobacco etch virus)
[3] = target: IL-10R NatE MESA receptor pair: CTEVp receptor with an IL-10Ra signal sequence, ECD, and TMD paired with a NTEVp receptor with an IL-10Rb ECD and TMD and a hCD8a signal sequence (human; tobacco etch virus)
[4] = target: VEGFR NatE MESA receptor pair: CTEVp (190K) receptor with a VEGFR1 signal sequence, ECD, and TMD paired with a NTEVp (WT) receptor with a VEGFR2 signal sequence, ECD, and TMD (human; tobacco etch virus)

human vascular endothelial growth factor VEGFA165, sequence (P15692 other isoform, or with tags, fused parts or gaps limits assumed): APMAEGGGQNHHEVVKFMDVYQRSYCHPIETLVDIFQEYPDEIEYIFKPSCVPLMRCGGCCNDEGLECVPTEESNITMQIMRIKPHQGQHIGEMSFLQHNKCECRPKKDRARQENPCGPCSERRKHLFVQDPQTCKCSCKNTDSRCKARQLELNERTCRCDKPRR

| Substance | fold induction of reporter expression, transfected receptors with co-expressed human IL-10 (fold induction) [1] | fold induction of reporter expression, transfected receptors with co-expressed human IL-10 (fold induction) [2] | IL-10 concentration at which reporter expression plateaus, genomically integrated receptors in Jurkat T cells [3] | IL-10 concentration at which reporter expression saturates, genomically integrated receptors in HEK293FT cells [3] | lowest IL-10 concentration distinguished by reporter expression, genomically integrated receptors in HEK293FT cells [3] | lowest IL-10 dose detected, Jurkats sorted for the top octile of mNeonGreen expression [3] | lowest IL-10 dose with a significant increase in reporter expression, antibiotic-selected Jurkat T cells [3] | dose of recombinant VEGF giving the highest reporter signal, genomically integrated receptors in HEK293FT cells [4] |
| --- | --- | --- | --- | --- | --- | --- | --- | --- |
| human interleukin 10 (IL-10) (from UniProt P22301 19-178) (ligand) | 1 | 1 | 250 ng/mL | 250 ng/mL | 16 ng/mL | 2 ng/mL | 16 ng/mL |  |
| human vascular endothelial growth factor VEGFA165 (from UniProt P15692 27-191) (ligand) |  |  |  |  |  |  |  | 100 ng/mL |
